Data as given in patent US20260009052, “CAS12 PROTEINS AND USES THEREOF” (GUANGZHOU REFORGENE MEDICINE CO., LTD., published 2026).
Substitutions are numbered along the chain they refer to.

Columns and labels:
C12-279 D352R = target: T1, C12-279 D352R (synthetic construct, D352R); test: cell_activity; PAM TTG; +/-0.22
T1 chain: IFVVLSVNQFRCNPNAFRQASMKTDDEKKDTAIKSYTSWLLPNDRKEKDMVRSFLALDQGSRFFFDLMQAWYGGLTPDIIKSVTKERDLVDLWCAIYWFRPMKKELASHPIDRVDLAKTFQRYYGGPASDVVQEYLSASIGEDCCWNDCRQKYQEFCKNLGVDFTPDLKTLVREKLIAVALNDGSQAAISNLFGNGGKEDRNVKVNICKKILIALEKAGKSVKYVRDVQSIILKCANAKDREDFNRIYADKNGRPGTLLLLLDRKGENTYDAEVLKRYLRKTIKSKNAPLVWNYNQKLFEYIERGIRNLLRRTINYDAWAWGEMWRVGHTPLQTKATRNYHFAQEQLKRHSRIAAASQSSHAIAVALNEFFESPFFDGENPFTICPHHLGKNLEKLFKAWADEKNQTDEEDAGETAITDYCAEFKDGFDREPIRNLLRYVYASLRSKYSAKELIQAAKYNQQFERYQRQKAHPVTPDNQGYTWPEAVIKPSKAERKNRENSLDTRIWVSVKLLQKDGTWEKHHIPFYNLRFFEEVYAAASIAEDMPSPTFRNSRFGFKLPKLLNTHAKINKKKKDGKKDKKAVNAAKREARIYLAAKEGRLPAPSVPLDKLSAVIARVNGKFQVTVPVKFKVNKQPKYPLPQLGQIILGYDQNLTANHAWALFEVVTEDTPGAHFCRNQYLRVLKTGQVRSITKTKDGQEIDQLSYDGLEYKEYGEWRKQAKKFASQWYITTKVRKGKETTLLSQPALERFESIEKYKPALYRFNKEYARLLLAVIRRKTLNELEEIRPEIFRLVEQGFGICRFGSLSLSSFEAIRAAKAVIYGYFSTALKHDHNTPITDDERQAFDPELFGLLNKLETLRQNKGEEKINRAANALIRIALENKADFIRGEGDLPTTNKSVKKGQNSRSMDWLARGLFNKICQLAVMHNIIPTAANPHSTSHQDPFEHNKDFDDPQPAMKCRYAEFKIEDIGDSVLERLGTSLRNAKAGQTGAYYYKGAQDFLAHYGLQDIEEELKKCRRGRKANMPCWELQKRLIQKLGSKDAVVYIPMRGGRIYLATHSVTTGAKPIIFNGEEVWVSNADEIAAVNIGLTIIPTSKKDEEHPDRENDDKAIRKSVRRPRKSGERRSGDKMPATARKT
Procedure: Transfection: transfection was performed 12-14 h after plating. 1.5 μL PEI (Yeasen Biotechnology, 40815ES03, Polyethylenimine Linear (PEI) MW25000) and 500 ng mutation clone plasmid were added to 100 μL Opti-MEM per well of the 24-well plate, mixed, and added to the NAAN cell line for cell transfection after placing at room temperature for 20 min. After overnight transfection, a fresh culture medium was replaced, and the culture was continued for 72 h, followed by flow cytometry. Editing efficiencies of different mutant clones were characterized by the proportion of GFP-positive cells.
Editing efficiency of some selected mutants was tested in Reporter3 cell line using the same manner as described for the NAAN reporter system, except that the cell line was changed from NAAN cell line to Reporter3 cell line.

[1] = target: T2, C12-279 Mut-02-1-5-426-858-860 (synthetic construct, I1R,L5R,Q186R,D352R,D426R,858R,L860R); test: cell_activity; PAM TTG
T2 chain: T1 chain with I1R, L5R, Q186R, D426R, E858R, L860R

B1: C12-279 Reporter3 sgRNA ; Reporter3 target (ssRNA ; dsDNA)
RNA: GUAAUGCGUCUCCCAUUGACGCCUCACCUCGCGACGCAAUGAUG
DNA 1: CTCACCTCGCGACGCAATGATG
DNA 2: CATCATTGCGTCGCGAGGTGAG
Q: Which binding signal (C12-279 D352R) does the source give for B1 here?
A: 1.18 fold of C12-279

Q: What about the binding signal [1] of the same binder?
A: 3.77 fold of C12-279
